Measured values reported in the supplement of paper PMC9170038.

Assays:
MS2 coat protein [1] = assay: apparent KD of MS2 coat protein, switch ON state; designed switch direction (-1 OFF switch, 1 ON switch): 1; higher = weaker reporter binding; settings: FMN input: 0 or 200 uM; Eterna round: R93 (includes R88 designs)
In short: (§1)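 The buffer was 100 mM Tris-HCl pH 7.5 with 80 mM KCl and 4 mM MgCl2, used without or with constant ligand. In it, RNA switches transcribed on-chip from Illumina sequencing clusters were titrated with SNAP-549-labelled MS2 coat protein in twofold steps from 0.7 or 1.5 nM to 3 µM. Apparent KD for each design is the median of its normalised cluster binding-curve fits.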

MS2 coat protein [2] = assay: apparent KD of MS2 coat protein, switch OFF state (with FMN for OFF switches, without FMN for ON switches); designed switch direction (-1 OFF switch, 1 ON switch): 1; higher = weaker reporter binding; settings: FMN input: 0 or 200 uM; Eterna round: R93 (includes R88 designs)
In short: as §1

Row | Sequence | apparent KD of MS2 coat protein (MS2 coat protein [1]) [nM] | apparent KD of MS2 coat protein (MS2 coat protein [2]) [nM]
1 | AGAAAUAAAAGAGAGGAUAUCCAAAAGAAAACAUGAGGAUCACCCAUGUGAAAGAAAAGAAAAUGGGAGAAGGCUCAAAAUAAGA [Topaz 18] | 22.5 | 55.4
2 | AAUACACAUGGUCAGGAUAUCGCAGCUAGGACAUGAGGAUCACCCAUGUAAUAAGUAAAAGUAAAUGAGAAGGGACAGGGUGACC [JR_SS002_Sub405] | 520 | 206
3 | GAAGACAUAGUUCAGGAUAUAUGAAUAGUCACAUGAGGAUCACCCAUGUGCAUUUAUAUGCGCACAUAGAAGGGAGGUAGUUAUC [SameState2 Malc#24] | 33.6 | 23.5
4 | AACAAUCUAUCUGAGGAUAUCAUAAAAAAGACAUGAGGAUCACCCAUGUAGCAGGAAACUGCAUAUGAGAAGGCAGAUAGAUUGA [SS2: 1122] | 29.6 | 18.1
5 | AAAAUACAUGAGGAUCACCCAUGUCCGACAAAUCAAGGAUAUGAUAGCCUAACCAGGCUGUUAGAAGGUGAAAGAA [Laarera] | 637 | 51.1
6 | AGAAAACAUGAGGAUCACCCAUGUAGAAAUAUGGGAGGAUAUACAAAGACGAAAGUCGAGGUAGAAGGCCUAAAGA [Mat - Same State 1 - Meechl mod - D122] | 21.7 | 103
7 | GAUAGACAUGAGGAUCACCCAUGUAGAAUUAUGGGAGGAUAUACAAAGACGAGAGUCAGAGUAGAAGGCCUAGGAC [salish99-ss1-159] | 23.6 | 58.6
8 | AACAAUCUAUCUGAGGAUAUCAUGUAAAAGACAUGAGGAUCACCCAUGUAGCAGGAAACUGCAUAUGAGAAGGCAGAUAGAUUGA [SS2: 1120] | 18.4 | 21.3
9 | GAAAAACAUGAGGAUCACCCAUGUCGAGAGAGACGAGGAUAUCUGAAUCGAUUAGAUUACGGAGAAGGCGUGAAAG [Mat - Same State 1 - Hyphema mod - D96] | 20.3 | 25.8
10 | AAAACACAUGAGGAUCACCCAUGUGCAAAAUUCGCAGGAUAUUUCUCAAUUAAAUGAAAGGAAGAAGGGUGAUAAA [Nob's Hobby 34 - Jieux - Same State 1] | 19.4 | 29.4
11 | AAGAAACAUGAGGAUCACCCAUGUGAGAUAAACACAGGAUAUGCAAAAGAAAGAAAGAAAGCAGAAGGGUGAAGAA [Mat - Same State 1 - Tesla mod - 51] | 21.6 | 129
12 | GGAAAUAACAGAGAGGAUAUCCAAAGGAAAACAUGAGGAUCACCCAUGUAAAAGGAAGGAAAUUGGGAGAAGGCUCAAAAUAAAU [salish99-ss2-015] | 20.4 | 29.1
13 | CGGAGACAUGAGGAUCACCCAUGUGAGAAGAGGCGAGGAUAUCGAAAGAAAGAAGAGAAACGAGAAGGCGCGAGGA [salish99-SS1-067] | 22.7 | 38.8
14 | AGAAAACAUGAGGAUCACCCAUGUAGAAAUAUGGGAGGAUAUACAAAGACGAAAGUCAAAGUAGAAGGCCUAAAGA [Mat - Same State 1 - Eli mod - 33] | 19 | 71.9
15 | AUAAUAUUAAGCUAGGAUAUACUAAAGUAAACAUGAGGAUCACCCAUGUAAAAAAAAAAACUCAUGUAGAAGGAGCAUAAAUAAA [moonwalk 9] | 12.2 | 15
16 | CGUGAACAUGAGGAUCACCCAUGUGAAAAACAUAGAGGAUAUGUCACGUGAGUGUAAAAGACAGAAGGCUAUCGUG [Mod 3 of Round 1 starryjess' Mod pf Nando] | 36.5 | 74.1
17 | GAAAAACAUGAGGAUCACCCAUGUAGAGAUAUGGGAGGAUAUACAAAGACGAAAGUCGAGGUAGAAGGCCUAAAAG [Garnet 55] | 24.4 | 116
18 | AGAAAACAUGAGGAUCACCCAUGUAGAAAUAUGGGAGGAUAUACGAGGACGAAAGUCAAAGUAGAAGGCCUAAAGA [Mat - Same State 1 - Meechl mod - D125] | 21 | 71.2
19 | UAUUAUUACACGAAGGAUAUCGAUAAUAGUACAUGAGGAUCACCCAUGUUCAUAUCAUUUUAGUUCGAGAAGGUCGAGGGUGAAG [JR_SS002_Sub709] | 23.9 | 20.1
20 | AAAAAACAUGAGGAUCACCCAUGUGCAAAAUUCGCAGGAUAUUUCUCAAUUAAAUGAGAGGAAGAAGGGUGACAAA [Nob's Hobby 28 - Jieux - Same State 1] | 95.9 | 55.3
21 | AACAAUCUAUCUGAGGAUAUGUGUCAAAAGACAUGAGGAUCACCCAUGUAAAAACAUGGAAAAACACAGAAGGCAGAUAGAUUGA [SS2: 1149] | 62.1 | 75.4

Row | Sequence | apparent KD of MS2 coat protein (MS2 coat protein [1]) [nM] | apparent KD of MS2 coat protein (MS2 coat protein [2]) [nM]
22 | GAAAAACAUGAGGAUCACCCAUGUAGAAAUAUGGGAGGAUAUACUAUGACGAAAGUCAAAGUAGAAGGUCUAAAAG [JL S1 M-MoE mod 6 In the Read] | 166 | 125
23 | CGAAAGGAGAGAGAGGAUAUCCAAAGGAAAACAUGAGGAUCACCCAUGUAGAAGGUAGGAGAUUGGGAGAAGGCUCAAGCUAAAC [salish99-ss2-158] | 40.2 | 37.3
24 | AAAAAAAAAUCACAGGAUAUACGAAAAAAAACAUGAGGAUCACCCAUGUGAAAAAAAAAAAAAAAGUAGAAGGGUGAUCCAAAAAA | 12.6 | 8.77
25 | AAUCCAAAUAGUUAGGAUAUGGGAAUUAAGACAUGAGGAUCACCCAUGUAAUUAAAACAAGUUAACCAGAAGGGACAGGGUGAAA [JR_SS002_Sub207] | 160 | 112
26 | CGAGUACAUGAGGAUCACCCAUGUUAUGAAUUGUCAGGAUAUGGAUAAAGGUGACAUGCGCCAGAAGGGACGUAUG [JR_SS001_Sub1006] | 36.9 | 43.7
27 | AAAAAACAAAGAGAGGAUAUCCUAAAAAAAACAUGAGGAUCACCCAUGUAAAGAAAUUUAAAAUGGGAGAAGGCUCUUUGAAAAA [Same State 2.6d ( Helter Skelter 1)] | 12.4 | 23.2
28 | AAAUAACAUGAGGAUCACCCAUGUUGCAACGGUACAGGAUAUGUGGGUGAAAAUAGCAUGGCAGAAGGGUAGUGUA [SameState1 Malc#29] | 130 | 67.8
29 | AACAAUCUAUCUGAGGAUAUAUGUCAAAAGACAUGAGGAUCACCCAUGUAAAAACAUGAAAAAUCAUAGAAGGCAGAUAGAUUGA [SS2: 1135] | 67.3 | 88.3
30 | AUAUGAGCUAUGGAGGAUAUCCACAAUAAAACAUGAGGAUCACCCAUGUAAGAAAGAAAAGAAUGGGAGAAGGCCAUAGCUCAAU [SS 2 M45] | 7.54 | 17.5
31 | AAAAAACAUGAGGAUCACCCAUGUAAUACAACGUCAGGAUAUUGAUUUUAUUAUGUAUUGCAAGAAGGGACAAAAA [Same State 1.3 (Same State 1 - Omei 2 - one GC added)] | 161 | 144
32 | CCGAUGGUAUACUAGGAUAUGGGCGCCCUUACAUGAGGAUCACCCAUGUUUACACAAAUCCGCGGCCAGAAGGAGUUCAUGGGAG [Orgere] | 90.3 | 163
33 | CAAACAACAGCACAGGAUAUCCAUAUAAUAACAUGAGGAUCACCCAUGUAAGCGGAAAAUAACGCGGAGAAGGGUGAACACACAA [Default title] | 130 | 35.1
34 | AAGAAACAUGAGGAUCACCCAUGUGAAAUAAACACAGGAUAUGCGAAAAGAAACAAAGAAGCAGAAGGGUGAAGAA [Mat - Same State 1 - Tesla mod - 57] | 15.1 | 44.1
35 | CGGAGACAUGAGGAUCACCCAUGUGAGAAGAGGCGAGGAUAUCGAAAAAAAAAAAAAAAACGAGAAGGCGCGAGAC [salish99-SS1-011] | 28.5 | 51.4
36 | GAAAAACAUGAGGAUCACCCAUGUAGAAAUAUGGGAGGAUAUACAAACUCGAAAGACAAAGUAGAAGGCCUAAAAG [Garnet 24] | 38.2 | 133
37 | AAAGAAAAACUAGAGGAUAUCUGAAUGGUAACAUGAGGAUCACCCAUGUGAAGAAAGGAACAUGAGGAGAAGGCUAGAAGAAAAA [JL Nando mod 17] | 11.4 | 35.4
38 | AGGAGACAUGAGGAUCACCCAUGUGAGAAGAGGCGAGGAUAUCGAAAGAAAGAAGAGAAACGAGAAGGCGCGAGAU [salish99-SS1-021] | 25.1 | 38.7
39 | AAUAUAUUAAGUGAGGAUAUCAUAGGAAAAACAUGAGGAUCACCCAUGUGGGAAACCUGGUCGGGUGAGAAGGUGCUUAAUAUAU [Samwise Clockwise 32 - Jieux - Same State 2] | 50.6 | 235
40 | AAAAAACAUGAGGAUCACCCAUGUGAGAACAUGGGAGGAUAUACAAGGACGAGAGUCAAGGUAGAAGGCCUAAAGA [Mat - Same State 1 - Mod - D193] | 545 | 21.1
41 | AAAAAACAUGAGGAUCACCCAUGUCCAAAAAAAAAAGGAUAUGCAAAAAAAAAAAAAAAAGCAGAAGGUUUAAAAA [Same State 1] | 41.2 | 45.1
42 | AAAAAACAUGAGGAUCACCCAUGUCCUCGGACGUGAGGAUAUGUACAGACUUCGGUCUGUACAGAAGGCACAAAAA [SS1 - 1034] | 1240 | 333
